These results are taken from patent US20060253917A1 (published 2006).

One experiment deals with T1, OsPP2A-2 aa 150-308 (Oryza sativa, UniProt A2XN40 150-307).
T1 construct: bait, Gal4 DBD fusion; also called PN20254
T1 sequence: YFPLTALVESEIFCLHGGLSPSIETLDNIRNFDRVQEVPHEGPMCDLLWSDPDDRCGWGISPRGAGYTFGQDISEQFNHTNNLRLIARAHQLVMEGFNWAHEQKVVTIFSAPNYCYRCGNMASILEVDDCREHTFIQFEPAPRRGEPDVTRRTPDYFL
The experiment in a line: Y2H; output trait library.

Another experiment has as its target T2, OsCAA90866 aa 100-250 (Oryza sativa).
T2 construct: bait, Gal4 DBD fusion; also called PN20311; O. sativa Chilling-Inducible Protein CAA90866
T2 chain: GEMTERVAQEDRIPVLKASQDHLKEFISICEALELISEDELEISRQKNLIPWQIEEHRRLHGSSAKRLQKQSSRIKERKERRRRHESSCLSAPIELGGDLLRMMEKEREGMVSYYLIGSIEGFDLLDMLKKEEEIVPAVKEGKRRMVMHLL
Nature of the experiment: Y2H; input trait library. Put shortly: (§1)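 A rice prey library, either the input trait or the output trait library, was screened with a bait clone encoding a defined amino-acid fragment of a rice protein. Screening used an automated, high-throughput yeast two-hybrid assay provided by Myriad Genetics Inc. (Salt Lake City, Utah). Retrieved prey clones had their encoding sequences compared by BLAST against databases so the interacting proteins could be identified.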

In another experiment the target is T3, OsTFX1 aa 400-629 (Oryza sativa).
T3 construct: bait, Gal4 DBD fusion; also called PN19697; O. sativa Putative Transcription Factor X1
T3 sequence (chain, as listed by the source): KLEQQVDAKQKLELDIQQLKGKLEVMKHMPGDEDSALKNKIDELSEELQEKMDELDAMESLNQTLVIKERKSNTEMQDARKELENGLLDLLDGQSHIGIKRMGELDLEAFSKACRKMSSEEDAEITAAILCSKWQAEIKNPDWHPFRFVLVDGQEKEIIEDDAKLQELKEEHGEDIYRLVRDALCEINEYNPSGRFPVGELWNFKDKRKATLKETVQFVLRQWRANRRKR
The experiment in a line: Y2H; output trait library. The gist of the method:
as §1

The target of a further experiment is T4, OsCYCOS2 aa 50-233 (Oryza sativa, UniProt A2YH60 50-233).
T4 construct: bait, Gal4 DBD fusion; also called PN20257; O. sativa Cyclin OsCYCOS2
T4 chain: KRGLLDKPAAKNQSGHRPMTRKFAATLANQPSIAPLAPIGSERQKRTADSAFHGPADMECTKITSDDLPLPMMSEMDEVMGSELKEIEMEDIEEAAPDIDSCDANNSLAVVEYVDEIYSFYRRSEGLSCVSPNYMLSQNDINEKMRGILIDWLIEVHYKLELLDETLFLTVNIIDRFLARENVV
The experiment in a line: Y2H; input trait library. Put shortly:
as §1

The target in another experiment is T5, Os018989-4003 aa 90-220 (Oryza sativa).
T5 construct: bait, Gal4 DBD fusion; also called PN21044
T5 chain: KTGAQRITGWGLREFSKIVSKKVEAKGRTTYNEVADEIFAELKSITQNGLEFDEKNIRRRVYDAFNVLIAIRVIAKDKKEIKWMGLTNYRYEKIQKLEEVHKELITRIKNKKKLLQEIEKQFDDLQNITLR
Nature of the experiment: Y2H; input trait library. The gist of the method:
as §1

For another experiment, the target named is T6, Os005750-3115 aa 50-150 (Oryza sativa, UniProt Q6IVC3 50-150).
T6 construct: bait, Gal4 DBD fusion; also called PN20466; O. sativa bZIP Transcription Factor
T6 sequence: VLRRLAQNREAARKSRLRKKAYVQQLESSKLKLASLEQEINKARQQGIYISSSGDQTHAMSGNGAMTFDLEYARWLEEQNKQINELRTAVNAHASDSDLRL
Nature of the experiment: Y2H; output trait library. Put shortly: as §1

The target in a further experiment is T7, OsHOS59 aa 1-206 (Oryza sativa, UniProt Q94LW4 113-311).
T7 construct: bait, Gal4 DBD fusion; also called PN20559
T7 sequence: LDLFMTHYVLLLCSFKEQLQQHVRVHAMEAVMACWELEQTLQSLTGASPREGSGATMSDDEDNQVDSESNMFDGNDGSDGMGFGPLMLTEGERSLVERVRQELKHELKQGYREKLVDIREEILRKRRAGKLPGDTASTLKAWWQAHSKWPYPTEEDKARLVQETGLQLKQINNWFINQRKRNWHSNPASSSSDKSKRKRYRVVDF
Nature of the experiment: Y2H; output trait library. Put shortly: as §1

Ends that are not written are not given here.

B1: OsPN24162 aa 28-164 (other)
chain: QKLTVSTVSSSGVGLTSTAVKKGGLYTLDVSSVYKYKSTLVDVKVDTESNISTTLTVFDVLPSTKLVTSVKLPDYNSGKVEMQYFHENASFATAVGMKPSPVVEFSGTAGAQGLAFGAEAGFDTATGKFTKYSAAIG
notes: prey, AD fusion; also called Novel Protein PN24162, Porin-like, Voltage-Dependent Anion Channel Protein
For B1, in the experiment with OsPP2A-2 aa 150-308, the binding result is given as “binds”.

B2: OsPN23045 aa 240-287 (other)
chain: ILSKLVQAKELLKEYVEREKKKREERSETPKSNEAVTKFDGSLNSMRH
modifications: not fully specified
notes: prey, AD fusion; also called Novel Protein PN23045
Consider B2, for which the binding result with OsCAA90866 aa 100-250 is recorded as “binds”.

B3: OsPN23829 prey clone -4-226 (other)
chain: MALSVEKTSSGREYKVKDLSQADFGRLEIELAEVEMPGLMACRAEFGPSQPFKGARISGSLHMTIQTAVLIETLTALGAEVRWCSCNIFSTQDHAAAAIARDSAAVFAWKGETLEEYWWCTERCLDWGVGGGPDLIVDDGGDATLLIHEGVKAEEEFEKSGKVPDPESTDNAEFKIVLTIIRDGLKSDPSKYRKMKERLVGVSEETTTGVKRLYQMQETGALLFPA
notes: prey, AD fusion
B3: the binding result in the experiment with OsTFX1 aa 400-629 is “binds”.

B4: OsPN23274 aa 79-210 (other)
chain: GELPRSASLCLREVLLVLQRFKAIVADCSARSRMRLLLESDEMEAELRELNHDLATLLDLLPVVELGLADDVLDVLALASRQCRRCSPAPESEEALKASVLSLIQEIEREIVPERERLEEILVEVGINDPAS
notes: prey, AD fusion; also called Novel Protein PN23274, Similar to A. thaliana ARM Repeat-Containing Protein
For B4, in the experiment with OsCYCOS2 aa 50-233, the binding result was “binds”.

B5: OsAAG46136 aa 92-222 (other)
chain: FGVNSGTTRFALENQAINEATFRCPDELGWKPQRAPIVSSDGSISNLRKTTVPVNEVNKSLQQMGFDVAPSDDAGRFVCNYVYYQSLRFAEQRGIKSLFVHFPLFTTISEEVQMNFVATLLEVLASQNYAQ
notes: prey, AD fusion; also called PN23186; O. sativa Putative Pyrrolidone Carboxyl Peptidase
As for B5, the binding result with OsCAA90866 aa 100-250 was “binds”.

B6: OsAAK72891 aa 342-638 (other)
chain: LQEKTEELFKFKREKGLLTLKNDVEFEPLRKKIPQIISRMDQIISKNIKMPSLCMTNDGLDERCISAKRIDSLYYENQHLRGLLADNMKDVKELSSQLSEASKEMSIQLSSEDDLLRQIAKIKEEYEDLQIEAGVRDGVYQTITRKLLDDSMNSMHDAATNFSTELSSLEAMISEKEKALCLSNEENRMLKEKIAELEQCLIQDKQEDPEVIKQESTEIILRDIEVAPHISPRRSHETPKQDMQYDELVKLNSSLEIASAALKEVENKNIDYNGIFTKNEQEKQLECILISIMKLSK
notes: prey, AD fusion; also called PN26317; O. sativa Putative Myosin Heavy Chain
For B6, the binding result with Os018989-4003 aa 90-220 is on record as “binds”.

B7: Os011994-D16 aa 99-368 (other)
chain: FGPSFGGGGSSRGRRQRRGEDVIHPLKVSLEDLYNGTSKKLSLSRNVLCAKCKGKGSKSGASMRCPGCQGSGMKITIRQLGPSMIQQMQQPCNECKGTGESINEKDRCPGCKGEKVIQEKKVLEVHVEKGMQHNQKITFPGEADEAPDTVTGDIVFVLQQKDHSKFKRKGDDLFYEHTLSLTEALCGFQFVLTHLDNRQLLIKSNPGEVVKPDQFKAINDEGMPMYQRPFMKGKLYIHFTVEFPDSLAPEQCKALEAVLPPKPASQLTEM
notes: prey, AD fusion; also called PN20618; Hypothetical Protein 011994-D16, Similar to Z. mays DnaJ protein
Regarding B7, the binding result in the experiment with OsPP2A-2 aa 150-308 is “binds”.

B8: PN23297 aa 980-1160 (other)
chain: LRLTLERRLRAAGEEAKSVEILKRDKLIESLSAKCAAAKSAAQSEHDKNLLLQRQLDDSLREITMLRSSKIMTAEAERENSNLKNLVESLSKNNSSLEYELTSARKGSDATMKKLKDVEGKCNHLQQNLDKLQEKLTNMENENHVLRQKALNMSPLNNMPMTTKAFPQKFATPIGLPNGEQ
notes: prey, AD fusion; also called 15451591; O. sativa Putative Myosin Heavy Chain
B8: the binding result with OsCYCOS2 aa 50-233 is “binds”.

B9: OsPN23829 prey clone -2-195 (other)
chain: MALSVEKTSSGREYKVKDLSQADFGRLEIELAEVEMPGLMACRAEFGPSQPFKGARISGSLHMTIQTAVLIETLTALGAEVRWCSCNIFSTQDHAAAAIARDSAAVFAWKGETLEEYWWCTERCLDWGVGGGPDLIVDDGGDATLLIHEGVKAEEEFEKSGKVPDPESTDNAEFKIVLTIIRDGLKSDPSKYRKM
notes: prey, AD fusion
Take B9: the binding result with OsTFX1 aa 400-629 is reported as “binds”.

B10: OsCAA33838 aa 5-155 (other)
chain: VFSRFSIYFCVLLLCHGSMAQLFNPSTNPWHSPRQGSFRECRFDRLQAFEPLRKVRSEAGVTEYFDEKNELFQCTGTFVIRRVIQPQGLLVPRYTNIPGVVYIIQGRGSMGLTFPGCPATYQQQFQQFSSQGQSQSQKFRDEHQKIHQFRQ
notes: prey, AD fusion; also called PN24775; O. sativa Glutelin CAA33838
As for B10, the binding result in the experiment with OsPP2A-2 aa 150-308 was “binds”.

B11: OsAAG13633 aa 538-738 (other)
chain: CSAHLSIISDLEANVESLENELQEQSKRLEADIQEVMRAKVEQEQRAIKAEESLRKARWNNATTAERLQEEFKMLSSQVSSAFSANEQLLMQARKEAAELQLQKGQLEELLQKAQEDLGSIQEQHRVKVQQLLTLVDFKSKETDRLVMELKSKSDEFQNQKRCNEAKLSVLSEEIDQLKAKIENLSNERDNLFEENEQKDK
notes: prey, AD fusion; also called PN25701
With B11, the binding result with Os005750-3115 aa 50-150 was “binds”.

B12: PN23416 aa 130-176 (other)
chain: YFEKQRAMNQVRQRVFQQAVQGALGTLNSCLNTELHFRTIRANISIL
modifications: not fully specified
notes: prey, AD fusion; also called Chloroplast ATPase I Subunit
In the case of B12, the binding result in the experiment with OsCYCOS2 aa 50-233 was “binds”.

B13: OsPN23829 aa 1-247 (other)
chain: MALSVEKTSSGREYKVKDLSQADFGRLEIELAEVEMPGLMACRAEFGPSQPFKGARISGSLHMTIQTAVLIETLTALGAEVRWCSCNIFSTQDHAAAAIARDSAAVFAWKGETLEEYWWCTERCLDWGVGGGPDLIVDDGGDATLLIHEGVKAEEEFEKSGKVPDPESTDNAEFKIVLTIIRDGLKSDPSKYRKMKERLVGVSEETTTGVKRLYQMQETGALLFPAINVNDSVTKSKFDNLYGCRHS
notes: prey, AD fusion
Turning to B13, in the experiment with OsHOS59 aa 1-206, the binding result is “binds”.

B14: OsAAG13633 aa 612-738 (other)
chain: LSSQVSSAFSANEQLLMQARKEAAELQLQKGQLEELLQKAQEDLGSIQEQHRVKVQQLLTLVDFKSKETDRLVMELKSKSDEFQNQKRCNEAKLSVLSEEIDQLKAKIENLSNERDNLFEENEQKDK
notes: as for B11
Take B14: the binding result in the experiment with Os005750-3115 aa 50-150 is recorded as “binds”.

B15: OsPN30858 aa 230-400 (other)
chain: VRTFLERTHERCRASYMEAVLEKQSYILLSRNDVESLMRLDPANLSLQNSFGQLDHSIPDAEAVEVEIELSDLLLDMCPIKQENLIHDDQKLILLASLSDSLEYLADSVERLGESFINSSTMLENKNHIHQGRHTRSTSAIPKSLASLANEYRRLAIDCVRVLRLEMQLET
notes: prey, AD fusion; also called Novel Protein PN30858
Turning to B15, in the experiment with OsHOS59 aa 1-206, the binding result was “binds”.

B16: OsAAG13633 aa 528-789 (other)
chain: LREQLRMQYECSAHLSIISDLEANVESLENELQEQSKRLEADIQEVMRAKVEQEQRAIKAEESLRKARWNNATTAERLQEEFKMLSSQVSSAFSANEQLLMQARKEAAELQLQKGQLEELLQKAQEDLGSIQEQHRVKVQQLLTLVDFKSKETDRLVMELKSKSDEFQNQKRCNEAKLSVLSEEIDQLKAKIENLSNERDNLFEENEQKDKELAANCQKDMFLQDRDAEIALLNKELASIKDQVQTYLEEINTLKSSKNEKE
notes: as for B11
For B16, the binding result with Os005750-3115 aa 50-150 was “binds”.

B17: OsPN23225 aa 639-792 (other)
chain: FGIRILDEAQQCIEELQCPEYYSEIVKEAINLALDKGPNFIDPLVRLLEHLHTKKIFKTEDLKTGCLLYAALLEDIGIDLPLAPALFGEVVARLSLSCSLSFEVVEEILKAVEDTYFRKGIFDAVMKTMGGNSSGQAILSSHAVVIDACNKLLK
notes: prey, AD fusion; also called Novel Protein PN23225, Similar to Tritticum aestivum Initiation Factor (iso)4f p82 Subunit
Turning to B17, the binding result with OsCAA90866 aa 100-250 is given as “binds”.

B18: OsAAK72891 aa 322-549 (other)
chain: EIITYFKSEMSKLKRMHELDLQEKTEELFKFKREKGLLTLKNDVEFEPLRKKIPQIISRMDQIISKNIKMPSLCMTNDGLDERCISAKRIDSLYYENQHLRGLLADNMKDVKELSSQLSEASKEMSIQLSSEDDLLRQIAKIKEEYEDLQIEAGVRDGVYQTITRKLLDDSMNSMHDAATNFSTELSSLEAMISEKEKALCLSNEENRMLKEKIAELEQCLIQDKQED
notes: prey, AD fusion; also called PN26317
For B18, the binding result in the experiment with Os018989-4003 aa 90-220 is listed as “binds”.
